Target: the molecule itself
Experiment: SDS-PAGE under reduced and non-reduced conditions; reduced and non-reduced GzmA run on 10-12 % SDS-PAGE, Coomassie Brilliant Blue stain

B1: recombinant granzyme A (GzmA), mouse, residues 29-260, histidine-tagged (enzyme, UniProt P11032 29-260, looked up)
chain: IIGGDTVVPHSRPYMALLKLSSNTICAGALIEKNWVLTAAHCNVGKRSKFILGAHSINKEPEQQILTVKKAFPYPCYDEYTREGDLQLVRLKKKATVNRNVAILHLPKKGDDVKPGTRCRVAGWGRFGNKSAPSETLREVNITVIDRKICNDEKHYNFHPVIGLNMICAGDLRGGKDSCNGDSGSPLLCDGILRGITSFGGEKCGDRRWPGVYTFLSDKHLNWIKKIMKGSV
notes: mouse granzyme A, residues 29-260; also called recombinant GzmA
- stoichiometry N: 2

From paper PMC6606709, “Granzyme A Stimulates pDCs to Promote Adaptive Immunity via Induction of Type I IFN” (Frontiers in Immunology, 2019)
